B1: EF-hand domain-containing protein 1 (Homo sapiens), Q5JVL4 (parent)
chain: MVSNPVHGLPFLPGTSFKDSTKTAFHRSQTLSYRNGYAIVRRPTVGIGGDRLQFNQLSQAELDELASKAPVLTYGQPKQAPPADFIPAHVAFDKKVLKFDAYFQEDVPMSTEEQYRIRQVNIYYYLEDDSMSVIEPVVENSGILQGKLIKRQRLAKNDRGDHYHWKDLNRGINITIYGKTFRVVDCDQFTQVFLESQGIELNPPEKMALDPYTELRKQPLRKYVTPSDFDQLKQFLTFDKQVLRFYAIWDDTDSMYGECRTYIIHYYLMDDTVEIREVHERNDGRDPFPLLMNRQRVPKVLVENAKNFPQCVLEISDQEVLEWYTAKDFIVGKSLTILGRTFFIYDCDPFTRRYYKEKFGITDLPRIDVSKREPPPVKQELPPYNGFGLVEDSAQNCFALIPKAPKKDVIKMLVNDNKVLRYLAVLESPIPEDKDRRFVFSYFLATDMISIFEPPVRNSGIIGGKYLGRTKVVKPYSTVDNPVYYGPSDFFIGAVIEVFGHRFIILDTDEYVLKYMESNAAQYSPEALASIQNHVRKREAPAPEAESKQTEKDPGVQELEALIDTIQKQLKDHSCKDNIREAFQIYDKEASGYVDRDMFFKICESLNVPVDDSLVKELIRMCSHGEGKINYYNFVRAFSN
partner: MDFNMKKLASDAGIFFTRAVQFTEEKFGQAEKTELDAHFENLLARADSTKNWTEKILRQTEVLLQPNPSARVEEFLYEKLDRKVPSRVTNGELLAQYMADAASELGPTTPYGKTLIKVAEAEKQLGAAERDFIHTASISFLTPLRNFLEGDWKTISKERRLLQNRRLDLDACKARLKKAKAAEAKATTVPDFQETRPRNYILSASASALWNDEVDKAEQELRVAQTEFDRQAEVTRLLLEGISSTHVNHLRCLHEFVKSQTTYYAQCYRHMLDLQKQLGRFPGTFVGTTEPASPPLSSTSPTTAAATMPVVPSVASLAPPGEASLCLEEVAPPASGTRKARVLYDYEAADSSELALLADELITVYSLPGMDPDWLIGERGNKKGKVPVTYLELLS
B2: Acetylcholine receptor subunit gamma (Homo sapiens), P07510-2 (parent)
chain: MHGGQGPLLLLLLLAVCLGAQGRNQEERLLADLMQNYDPNLRPAERDSDVVNVSLKLTLTNLISLNEREEALTTNVWIEMQWCDYRLRWDPRDYEGLWVLRVPSTMVWRPDIVLENKSQTYSTNEIDLQLSQEDGQTIEWIFIDPEAFTENGEWAIQHRPAKMLLDPAAPAQEAGHQKVVFYLLIQRKPLFYVINIIAPCVLISSVAILIHFLPAKAGGQKCTVAINVLLAQTVFLFLVAKKVPETSQAVPLISKYLTFLLVVTILIVVNAVVVLNVSLRSPHTHSMARGVRKVFLRLLPQLLRMHVRPLAPAAVQDTQSRLQNGSSGWSITTGEEVALCLPRSELLFQQWQRQGLVAAALEKLEKGPELGLSQFCGSLKQAAPAIQACVEACNLIACARHQQSHFDNGNEEWFLVGRVLDRVCFLAMLSLFICGTAGIFLMAHYNRVPALPFPGDPRPYLPSPD
partner: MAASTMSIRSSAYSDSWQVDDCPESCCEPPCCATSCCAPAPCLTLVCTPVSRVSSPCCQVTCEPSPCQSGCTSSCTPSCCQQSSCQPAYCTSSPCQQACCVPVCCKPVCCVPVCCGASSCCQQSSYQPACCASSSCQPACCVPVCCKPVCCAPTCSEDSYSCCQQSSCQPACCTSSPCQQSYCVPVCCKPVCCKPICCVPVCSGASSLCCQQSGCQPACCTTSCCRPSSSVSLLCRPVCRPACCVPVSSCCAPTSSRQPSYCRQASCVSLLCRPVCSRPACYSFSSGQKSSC
B3: Acetylcholine receptor subunit gamma (Homo sapiens), P07510-2 (parent)
chain: B2 chain
partner: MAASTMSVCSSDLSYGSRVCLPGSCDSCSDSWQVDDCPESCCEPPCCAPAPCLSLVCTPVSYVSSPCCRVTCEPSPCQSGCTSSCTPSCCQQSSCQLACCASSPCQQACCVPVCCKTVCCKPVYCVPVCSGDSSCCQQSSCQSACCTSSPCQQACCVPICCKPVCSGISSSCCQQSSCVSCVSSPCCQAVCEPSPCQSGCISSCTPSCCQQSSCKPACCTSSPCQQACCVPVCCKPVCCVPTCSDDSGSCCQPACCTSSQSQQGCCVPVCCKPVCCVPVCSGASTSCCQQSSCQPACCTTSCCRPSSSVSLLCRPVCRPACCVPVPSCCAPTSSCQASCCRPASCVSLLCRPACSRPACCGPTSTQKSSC
B4: Emerin (Homo sapiens), P50402 (parent)
chain: MDNYADLSDTELTTLLRRYNIPHGPVVGSTRRLYEKKIFEYETQRRRLSPPSSSAASSYSFSDLNSTRGDADMYDLPKKEDALLYQSKGYNDDYYEESYFTTRTYGEPESAGPSRAVRQSVTSFPDADAFHHQVHDDDLLSSSEEECKDRERPMYGRDSAYQSITHYRPVSASRSSLDLSYYPTSSSTSFMSSSSSSSSWLTRRAIRPENRAPGAGLGQDRQVPLWGQLLLFLVFVIVLFFIYHFMQAEEGNPF
partner: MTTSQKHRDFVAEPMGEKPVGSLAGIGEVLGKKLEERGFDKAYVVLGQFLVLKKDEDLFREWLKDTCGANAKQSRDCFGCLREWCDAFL
B5: Complement factor H-related protein 5 (Homo sapiens), Q9BXR6 (parent)
chain: MLLLFSVILISWVSTVGGEGTLCDFPKIHHGFLYDEEDYNPFSQVPTGEVFYYSCEYNFVSPSKSFWTRITCTEEGWSPTPKCLRMCSFPFVKNGHSESSGLIHLEGDTVQIICNTGYSLQNNEKNISCVERGWSTPPICSFTKGECHVPILEANVDAQPKKESYKVGDVLKFSCRKNLIRVGSDSVQCYQFGWSPNFPTCKGQVRSCGPPPQLSNGEVKEIRKEEYGHNEVVEYDCNPNFIINGPKKIQCVDGEWTTLPTCVEQVKTCGYIPELEYGYVQPSVPPYQHGVSVEVNCRNEYAMIGNNMITCINGIWTELPMCVATHQLKRCKIAGVNIKTLLKLSGKEFNHNSRIRYRCSDIFRYRHSVCINGKWNPEVDCTEKREQFCPPPPQIPNAQNMTTTVNYQDGEKVAVLCKENYLLPEAKEIVCKDGRWQSLPRCVESTAYCGPPPSINNGDTTSFPLSVYPPGSTVTYRCQSFYKLQGSVTVTCRNKQWSEPPRCLDPCVVSEENMNKNNIQLKWRNDGKLYAKTGDAVEFQCKFPHKAMISSPPFRAICQEGKFEYPICE
partner: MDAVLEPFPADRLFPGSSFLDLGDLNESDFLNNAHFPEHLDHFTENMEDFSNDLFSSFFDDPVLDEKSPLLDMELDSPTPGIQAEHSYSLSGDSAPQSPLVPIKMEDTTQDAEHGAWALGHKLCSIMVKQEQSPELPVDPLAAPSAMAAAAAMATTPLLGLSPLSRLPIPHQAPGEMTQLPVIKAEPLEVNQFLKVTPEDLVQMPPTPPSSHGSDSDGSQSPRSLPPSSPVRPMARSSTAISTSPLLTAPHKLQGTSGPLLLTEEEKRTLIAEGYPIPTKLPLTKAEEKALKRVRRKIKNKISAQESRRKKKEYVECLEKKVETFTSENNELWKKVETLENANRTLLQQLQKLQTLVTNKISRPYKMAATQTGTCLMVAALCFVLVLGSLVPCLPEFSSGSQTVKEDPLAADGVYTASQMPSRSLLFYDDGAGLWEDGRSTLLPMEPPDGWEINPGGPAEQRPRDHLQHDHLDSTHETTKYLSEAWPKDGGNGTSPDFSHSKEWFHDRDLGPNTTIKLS

Variants of B1 are the subject of one assay. The conditions noted are these: with shlb2_human SH3GLB2, Q9NR46.
As for T508R, the “effect of a mutation on the interaction” value was “with no effect”.

As to M448T, the “effect of a mutation on the interaction” value is “with no effect”. For P77T, the “effect of a mutation on the interaction” value is recorded as “disrupting interaction strength”. The same measure, in the same setting: the entry for R159W is “with no effect”; for R221H it is “disrupting interaction strength”.

The variants in a further assay derive from B2. To be noted: with kr109_human KRTAP10-9, P60411.
Regarding R187C, the “effect of a mutation on the interaction” value is “disrupting interaction strength”. The same measure, in the same setting: the entry for V107G is “disrupting interaction strength”; for R86C it is “disrupting interaction strength”.

The variants in the next assay derive from B3. To be noted: with kr107_human KRTAP10-7, P60409.
Take R187C: the “effect of a mutation on the interaction” value is recorded as “disrupting interaction strength”. R86C: the “effect of a mutation on the interaction” value is “disrupting interaction strength”. Consider V107G, for which the “effect of a mutation on the interaction” value is “disrupting interaction strength”.

Variants of B4 are the subject of the next assay. To be noted: with baf_human BANF1, O75531.
As to D72V, the “effect of a mutation on the interaction” value is listed as “with no effect”. Consider S54F, for which the “effect of a mutation on the interaction” value is reported as “with no effect”. On to P183H, for which the “effect of a mutation on the interaction” value is “with no effect”. As for P183T, the “effect of a mutation on the interaction” value is reported as “with no effect”.

Variants of B5 are the subject of the next assay. The conditions noted are these: with cr3l1_human CREB3L1, Q96BA8.
Turning to G145E, the “effect of a mutation on the interaction” value is given as “with no effect”.

With P46S, the “effect of a mutation on the interaction” value is “with no effect”. As to R356H, the “effect of a mutation on the interaction” value was “with no effect”. The same measure, in the same setting: next, K144N: “with no effect”; M514R: “with no effect”. On to F192L, for which the “effect of a mutation on the interaction” value is on record as “with no effect”.

The values are drawn from IntAct's records for PubMed 25910212.
